Drawing on paper PMC10244618, this text covers enrichment for 113 variants.

B1: NF2 (merlin) isoform 7, human, full length (507 aa, lacks exons 2-3 = isoform-1 residues 39-121; exon-16 C-terminus), P35240-4 (parent)
chain: MAGAIASRMSFSSLKRKQPKTFTVRIVTMDAEMEFNCEVKKQILDEKIYCPPEASVLLASYAVQAKYGDYDPSVHKRGFLAQEELLPKRVINLYQMTPEMWEERITAWYAEHRGRARDEAEMEYLKIAQDLEMYGVNYFAIRNKKGTELLLGVDALGLHIYDPENRLTPKISFPWNEIRNISYSDKEFTIKPLDKKIDVFKFNSSKLRVNKLILQLCIGNHDLFMRRRKADSLEVQQMKAQAREEKARKQMERQRLAREKQMREEAERTRDELERRLLQMKEEATMANEALMRSEETADLLAEKAQITEEEAKLLAQKAAEAEQEMQRIKATAIRTEEEKRLMEQKVLEAEVLALKMAEESERRAKEADQLKQDLQEAREAERRAKQKLLEIATKPTYPPMNPIPAPLPPDIPSFNLIGDSLSFDFKDTDMKRLSMEIEKEKVEYMEKSKHLQEQLNELKTEIEALKLKERETALDILHNENSDRGGSSKHNTIKKPQAQGRRPICI

“And” between values parts separate entries of the source, which are not always exact repeats. Identical values can stand only once.

The variants in the first experiment derive from B1. Put plainly: reverse yeast two-hybrid deep mutational scan (rY2H-seq): NF2 isoform 7 mutant library as bait mated with wild-type prey strains; selection on medium lacking adenine for non-interacting pairs; NextSeq paired-end sequencing; enrichment vs …. The conditions noted are these: with NF2 C-terminal domain (wild type; homomeric NF2-NF2 interaction), P35240; yeast diploids after mating (RBait_S3 x RPrey_S3), 30 °C, selection for reporter genes on NB agar; human ABL2 co-expressed as the kinase-dead K35M mutant …; HIGHER = WEAKER BINDING (the opposite of display enrichments): higher = stronger loss of interaction: reverse Y2H selects yeast in which bait and prey do NOT interact (growth without adenine), so a …; hits-only table; partner unresolved; scale: rY2H score; numbering: uniprot, sequence starts at 1.
Turning to E380K, the enrichment is 3.26.

For the variant K496S, the enrichment was 1.44.

With I105C, the enrichment was 1.42 and 1.58.

Regarding N482T, the enrichment was found to be 2.43.

N482E: the enrichment is 1.99.

Consider N482A, for which the enrichment was 3.43.

On to N143M, for which the enrichment was 1.65 and 1.37.

N457E: the enrichment came out at 2.32.

Regarding D374A, the enrichment amounted to 1.98.

In the case of H491L, the enrichment is 2.51.

With F139E, the enrichment came to 20.1.

For A499G, the enrichment amounted to 1.7.

As for M357A, the enrichment was 1.97 and 1.82.

As for S421K, the enrichment was determined as 2.24.

Take F424E: the enrichment worked out at 27.7.

As to L475K, the enrichment amounted to 4.06.

L353K: the enrichment was determined as 3.06.

D69L: the enrichment was 1.7.

Turning to P163E, the enrichment came out at 2.31.

E245K: the enrichment is 3.75.

With E245A, the enrichment was found to be 1.58.

For the variant L434R, the enrichment came out at 1.58.

D476G: the enrichment was found to be 1.92.

As for I160A, the enrichment amounted to 1.61.

On to I160K, for which the enrichment is 1.71 and 3.21.

As to E309K, the enrichment was determined as 1.83.

Consider H159A, for which the enrichment amounted to 2.04.

As for L156K, the enrichment is 2.02.

With A298E, the enrichment is 2.55 and 1.66.

With S489K, the enrichment was determined as 2.15.

R113G: the enrichment was determined as 1.5.

Regarding M262D, the enrichment amounted to 6.41.

For the variant V27L, the enrichment stood at 2.04.

In the case of Y61K, the enrichment came out at 1.84.

In the case of Y61A, the enrichment was determined as 6.2.

Take A266L: the enrichment came to 3.08.

For the variant F415E, the enrichment worked out at 2.37.

Regarding L390A, the enrichment worked out at 2.28.

T336D: the enrichment turned out to be 3.64.

Regarding S483K, the enrichment turned out to be 2.55.

Staying with this experiment, now noted: with KDM1A (lysine-specific histone demethylase 1A; the table's label AOF2 is a gene synonym of KDM1A), O60341; yeast diploids after mating (RBait_S3 x RPrey_S3), 30 °C, selection for reporter genes on NB agar; human tyrosine kinase ABL2 co-expressed as the active kinase …; HIGHER = WEAKER BINDING (the opposite of display enrichments): higher = stronger loss of interaction: reverse Y2H selects yeast in which bait and prey do NOT interact (growth without adenine), so a …; hits-only table; scale: rY2H score; numbering: uniprot, sequence starts at 1.
In the case of E444K, the enrichment came to 1.5.

A54V: the enrichment was found to be 3.45.

Turning to I105C, the enrichment came out at 1.42.

I404D: the enrichment worked out at 7.96.

Q82D: the enrichment was found to be 1.58.

As for N143M, the enrichment came to 2.18.

On to A365K, for which the enrichment amounted to 2.

Turning to D428N, the enrichment was 1.87.

Regarding A316E, the enrichment is 2.69.

For the variant G419E, the enrichment was 4.86.

On to N402E, for which the enrichment came to 1.73.

Consider A65V, for which the enrichment was 1.9.

Consider S55F, for which the enrichment is 3.58.

Q306H: the enrichment worked out at 1.79.

Take I412H: the enrichment is 6.45.

On to T308I, for which the enrichment is 2.84.

Take A155C: the enrichment amounted to 1.93.

Take P407L: the enrichment was 1.77 and 2.01.

For the variant P407A, the enrichment was 2.33.

Regarding R341A, the enrichment came to 8.79.

For the variant S421K, the enrichment amounted to 2.61.

On to P163E, for which the enrichment was found to be 4.05.

As for E245Y, the enrichment turned out to be 1.47.

For the variant L434R, the enrichment was determined as 1.37.

As for R89K, the enrichment was determined as 1.9.

As for A333E, the enrichment stood at 2.04.

Consider I160K, for which the enrichment is 3.84 and 4.07.

Consider E309K, for which the enrichment stood at 1.97.

For H159A, the enrichment was 1.39.

S489L: the enrichment is 2.43.

Take I329A: the enrichment came to 1.81.

On to E38K, for which the enrichment came out at 1.85.

On to M262D, for which the enrichment was determined as 5.37.

With E148A, the enrichment was 1.62 and 1.74.

Regarding R243K, the enrichment amounted to 1.55.

As for R253Q, the enrichment is 1.48.

In the case of E121A, the enrichment is 1.59.

With M225K, the enrichment is 43.

For E391R, the enrichment stood at 2.32.

As for L390E, the enrichment stood at 2.

In the case of Q500K, the enrichment was 1.42.

As to M96V, the enrichment is 1.61.

In the case of M96I, the enrichment came out at 1.63.

Regarding P396S, the enrichment is 1.47.

Take D299E: the enrichment came to 1.51.

Still in this experiment, the particulars now being: with KDM1A (lysine-specific histone demethylase 1A; the table's label AOF2 is a gene synonym of KDM1A), O60341; yeast diploids after mating (RBait_S3 x RPrey_S3), 30 °C, selection for reporter genes on NB agar; human ABL2 co-expressed as the kinase-dead K35M mutant …; HIGHER = WEAKER BINDING (the opposite of display enrichments): higher = stronger loss of interaction: reverse Y2H selects yeast in which bait and prey do NOT interact (growth without adenine), so a …; hits-only table; scale: rY2H score; numbering: uniprot, sequence starts at 1.
For N482T, the enrichment was found to be 2.3.

For N482L, the enrichment worked out at 2.71.

Consider N457S, for which the enrichment worked out at 3.38.

Consider N457T, for which the enrichment was 2.31.

For L434R, the enrichment was 1.73.

In the case of D476E, the enrichment came to 2.39.

With Q498L, the enrichment worked out at 1.65.

Turning to C506S, the enrichment came out at 1.49.

Consider G486D, for which the enrichment is 1.52.

Q500L: the enrichment came out at 19.6.

Staying with this experiment, now noted: with PIK3R3 (phosphatidylinositol 3-kinase regulatory subunit gamma), Q92569; yeast diploids after mating (RBait_S3 x RPrey_S3), 30 °C, selection for reporter genes on NB agar; human tyrosine kinase ABL2 co-expressed as the active kinase …; HIGHER = WEAKER BINDING (the opposite of display enrichments): higher = stronger loss of interaction: reverse Y2H selects yeast in which bait and prey do NOT interact (growth without adenine), so a …; hits-only table; scale: rY2H score; numbering: uniprot, sequence starts at 1.
As for A365K, the enrichment is 2.58.

As to A365G, the enrichment was found to be 2.6.

Take A316E: the enrichment was 2.22 and 3.1.

For the variant L216P, the enrichment came to 3.07.

Take N402E: the enrichment was 1.42.

For T147A, the enrichment amounted to 5.43.

Consider S55K, for which the enrichment amounted to 35.5.

As for E339G, the enrichment came to 2.91.

Regarding M357E, the enrichment was 2.86.

Take A155C: the enrichment was 1.8 and 1.98.

Take A155T: the enrichment is 2.16.

In the case of L212P, the enrichment is 2.57.

As for L149P, the enrichment worked out at 2.48.

For L353P, the enrichment came to 1.53.

As to D484E, the enrichment worked out at 2.39.

For the variant R89G, the enrichment was 1.41.

Consider E458L, for which the enrichment amounted to 13.6.

For the variant E309K, the enrichment came out at 3.02.

For L14P, the enrichment was determined as 3.46.

For I329A, the enrichment is 1.64.

T493A: the enrichment was determined as 2.62.

Turning to D194N, the enrichment came to 1.96.

P52A: the enrichment worked out at 1.76.

For the variant A368L, the enrichment is 2.18.

As for M262D, the enrichment came to 15.7.

As to R253Q, the enrichment came out at 1.57.

As for K346N, the enrichment was 2.36.

As to Q498E, the enrichment came out at 1.97.

Turning to R166C, the enrichment came to 1.57.

For the variant R166K, the enrichment is 2.44.

For the variant G486S, the enrichment amounted to 2.29.

In the case of F415E, the enrichment came to 1.83.

As to I141C, the enrichment amounted to 1.42.

In the case of V63K, the enrichment is 2.

Turning to M225I, the enrichment turned out to be 2.15.

Turning to T336E, the enrichment is 3.42.

Take D71T: the enrichment stood at 11.1.

For the variant P396K, the enrichment is 4.88.
